# Reference: IntAct's records for PubMed 17571076
# B1: Mitochondrial protein import protein ZIM17 (Saccharomyces cerevisiae), P42844 (parent)
# chain: MIPRTRTLLQSKIPITRYFARCWAPRVRYNVCRTLPAAALHTNIIAHNEVKKDDKKVHLGSFKVDKPKMMIAFTCKKCNTRSSHTMSKQAYEKGTVLISCPHCKVRHLIADHLKIFHDHHVTVEQLMKANGEQVSQDVGDLEFEDIPDSLKDVLGKYAKNNSENASQLPHPSQK
# Variants of: B1
# Details: with hsp77_yeasx SSC1, P0CS91
# hsp77_yeasx SSC1, P0CS91, sequence (P0CS91 whole entry): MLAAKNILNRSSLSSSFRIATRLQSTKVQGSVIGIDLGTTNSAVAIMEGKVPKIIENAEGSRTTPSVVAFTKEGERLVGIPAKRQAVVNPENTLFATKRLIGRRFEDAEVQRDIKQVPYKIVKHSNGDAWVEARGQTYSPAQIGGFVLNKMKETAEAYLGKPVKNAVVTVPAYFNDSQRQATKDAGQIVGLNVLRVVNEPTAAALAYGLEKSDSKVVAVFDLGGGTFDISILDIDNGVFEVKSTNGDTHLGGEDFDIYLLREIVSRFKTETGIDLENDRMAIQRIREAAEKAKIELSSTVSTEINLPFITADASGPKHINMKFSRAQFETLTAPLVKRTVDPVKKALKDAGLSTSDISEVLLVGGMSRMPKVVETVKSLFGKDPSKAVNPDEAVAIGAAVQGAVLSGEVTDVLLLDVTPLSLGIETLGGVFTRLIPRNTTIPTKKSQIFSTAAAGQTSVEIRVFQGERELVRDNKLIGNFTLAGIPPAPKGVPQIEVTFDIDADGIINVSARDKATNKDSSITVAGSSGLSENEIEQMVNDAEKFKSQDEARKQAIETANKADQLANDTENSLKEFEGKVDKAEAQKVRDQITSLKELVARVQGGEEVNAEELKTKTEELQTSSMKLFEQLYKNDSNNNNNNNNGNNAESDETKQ
row,Variant,effect of a mutation on the interaction
1,MIPRTRTLLQSKIPITRYFARCWAPRVRYNVCRTLPAAALHTNIIAHNEVKKDDKKVHLGSFKVDKPKMMIAFTCKKCNTRSSHTMSKQAYEKGTVLISCPHCKVRHLIAAHLKIFHDHHVTVEQLMKANGEQVSQDVGDLEFEDIPDSLKDVLGKYAKNNSENASQLPHPSQK,disrupting interaction

# Variants of: B1
# Details: with hsp77_yeasx SSC1, P0CS91
# Remark: another data set of the same source
row,Variant,effect of a mutation on the interaction
1,MIPRTRTLLQSKIPITRYFARCWAPRVRYNVCRTLPAAALHTNIIAHNEVKKDDKKVHLGSFKVDKPKMMIAFTCKKCNTRSSHTMSKQAYEKGTVLISCPHCKVRALIADHLKIFHDHHVTVEQLMKANGEQVSQDVGDLEFEDIPDSLKDVLGKYAKNNSENASQLPHPSQK,disrupting interaction
2,MIPRTRTLLQSKIPITRYFARCWAPRVRYNVCRTLPAAALHTNIIAHNEVKKDDKKVHLGSFKVDKPKMMIAFTCKKCNTRSSHTMSKQAYEKGTVLISCPHCKVAHLIADHLKIFHDHHVTVEQLMKANGEQVSQDVGDLEFEDIPDSLKDVLGKYAKNNSENASQLPHPSQK,disrupting interaction
